Source: the supplement of paper PMC10724198
± gives the standard deviation of the averaged measurements.

System: Saccharomyces cerevisiae
Assay: protein stability index of tFT-peptide fusion (C-terminal peptide) (PSI (0-1 scale)); higher = more stable (slower turnover)
Conditions: genetic background: wild type; temperature: 30 C
Description: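 Multiplexed protein stability (MPS) profiling in S. cerevisiae. Random 12-aa peptides (tFT-X12 library) are fused to the C-terminus of a sfGFP-mCherry tandem fluorescent timer, after mCherry and a GGGS linker. Cells are FACS-sorted into 8 mCherry/sfGFP bins and deep-sequenced. The protein stability index (PSI) is the read-weighted bin average, scaled from 0 (unstable) to 1 (stable). Only peptides with >10 reads are reported; cells were grown at 30 °C in SC-His with glucose.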
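Note: PSI is a weighted mean of sequencing reads over stability bins, variants kept only with over 10 reads, mCherry proximal and sfGFP distal, peptide attached via GGGS linker.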

| Sequence | protein stability index |
| --- | --- |
| PPPPPPYHPTPP | 0.6685 ± 0.0011 |
| ILTDFELLPVYR | 0.731 ± 0.063 |
| PTSACAPACPLL | 0.706 ± 0.032 |
| WGVVAVSGRLGA | 0.78 ± 0.012 |
| PHSPSPSWFWPR | 0.76 ± 0.058 |
| PTPPRRPLSFSP | 0.653 ± 0.057 |
| ARAGLVGDARGM | 0.641 ± 0.026 |
| FLFASYFLENQR | 0.766 ± 0.13 |
| RLAPWATGVRMW | 0.6759 ± 0.0016 |
| QLDRRKDSLLRH | 0.746 ± 0.017 |
| SFPVPFPRFFPP | 0.714 ± 0.03 |
| QLSSARTILRRP | 0.597 ± 0.0085 |
| GAFSVPKAKNAL | 0.699 ± 0.1 |
| TPPAEGTSQTKL | 0.659 ± 0.054 |
| SLRLPPPTDTDS | 0.681 ± 0.03 |
| KKKEKKKKNKLK | 0.74 ± 0.019 |
| KNDRKLIKRILK | 0.728 ± 0.093 |
| PPPPFPLPSPSL | 0.655 ± 0.022 |
| NSRLLPWRHELR | 0.784 ± 0.1 |
| RPPFRVYDYPLL | 0.671 ± 0.039 |
| CVQVMTWAMLEC | 0.618 ± 0.022 |
| DRHVPPASYLAD | 0.6343 ± 0.0057 |
| CAASLSHKSAPY | 0.768 ± 0.1 |
| GLVGRGGAVGEW | 0.68596 ± 0.00038 |
| SVLVTASSFLYF | 0.649 ± 0.027 |

| Sequence | protein stability index |
| --- | --- |
| EGTIDSGRHSLK | 0.752 ± 0.15 |
| KKKKKTKNIKKT | 0.794 ± 0.059 |
| EEFTSRAFRISW | 0.744 ± 0.13 |
| GGGKINSLHGAG | 0.681 ± 0.041 |
| ARTIVLGAGSGT | 0.654 ± 0.084 |
| PPPPLTPPHLSP | 0.713 ± 0.039 |
| PPPPPPSPPPSP | 0.633 ± 0.044 |
| YPDYTSATGNIR | 0.666 ± 0.016 |
| PPPTPSPPPLPP | 0.5748 ± 0.0057 |
| TLGLLPDVCVEL | 0.683 ± 0.021 |
| RVEGKNNKEVCI | 0.742 ± 0.079 |
| KEKKQARVKKKK | 0.723 ± 0.022 |
| PLWRVPPYPPSP | 0.691 ± 0.031 |
| DIHSSQVPSMFA | 0.68 ± 0.076 |
| TYTPQVSSVFPI | 0.698 ± 0.018 |
| LRLLRPVPPRVF | 0.5405 ± 0.0019 |
| GFSTCCLFWLTV | 0.529 ± 0.029 |
| VSPLFQDFSIIN | 0.717 ± 0.06 |
| SCTPEDGRVRYT | 0.66 ± 0.048 |
| DSGRRVTLLVFV | 0.594 ± 0.041 |
| PMNCIGTRGHQV | 0.65854 ± 0.00043 |
| RPPFPPPPLPPP | 0.656 ± 0.031 |
| DRQGMIGLKYVK | 0.776 ± 0.11 |
| GWFVVYQIGSEV | 0.564 ± 0.063 |
| RTWGGKKHKKRK | 0.716 ± 0.014 |

| Sequence | protein stability index |
| --- | --- |
| SPLSPPPPRLSA | 0.723 ± 0.061 |
| ELEIKGRRQIKT | 0.666 ± 0.055 |
| IGQCYLRHRGMS | 0.5544 ± 0.0053 |
| GLAYGICYRVVL | 0.637 ± 0.011 |
| DLWDDVAYVIVA | 0.619 ± 0.039 |
| KKTLWRKITMQK | 0.7193 ± 0.0057 |
| RTVTKGTTFKVR | 0.671 ± 0.057 |
| SFLLPTLVRLSH | 0.65 ± 0.022 |
| PPTSPSNALPFA | 0.6666 ± 0.0032 |
| GGGGGGGGSLRV | 0.663 ± 0.038 |
| GGRTFHPLWGTT | 0.735 ± 0.029 |
| DETCVGSWNSCG | 0.712 ± 0.044 |
| GLACSRYVLFWK | 0.562 ± 0.023 |
| SWFTHTQSVRCS | 0.515 ± 0.014 |
| FAVLGGGVGGGW | 0.7077 ± 0.0032 |
| AGGIAVYFGEEE | 0.746 ± 0.055 |
| SPPTPPLAPLSP | 0.656 ± 0.042 |
| PSYKRGGSYPMQ | 0.692 ± 0.049 |
| CRTTDFQCTIGN | 0.683 ± 0.0087 |
| GGVGRAALRWYG | 0.68 ± 0.03 |
| VPLPLHLPPPLP | 0.863 ± 0.12 |
| PPRPSSRVPPPA | 0.65 ± 0.059 |
| IALTSCVPDLSF | 0.6911 ± 0.0037 |
| VGACGEYGGFFR | 0.67 ± 0.035 |
| SPRPLPLPLPTS | 0.682 ± 0.1 |

| Sequence | protein stability index |
| --- | --- |
| KEKKLKIIQKGT | 0.578 ± 0.09 |
| QVSLLVKKSKLR | 0.679 ± 0.049 |
| PFVSHLDRWDIR | 0.712 ± 0.041 |
| SGPGGVGPTGGI | 0.6585 ± 0.0055 |
| PPPPRPSSPLIL | 0.741 ± 0.021 |
| TLGSSTPFPCFP | 0.716 ± 0.059 |
| KQKKTQKIYTMR | 0.728 ± 0.059 |
| VGGAAVGAGGGV | 0.691 ± 0.054 |
| NYSINQKNRKKN | 0.737 ± 0.013 |
| KEKKENKRKNTT | 0.699 ± 0.051 |
| HAPRSPCLPFPP | 0.687 ± 0.047 |
| AVVVGGGGWWWA | 0.801 ± 0.12 |
| PPPPGPGSAPPP | 0.59 ± 0.065 |
| SSVVCGPGVLGV | 0.729 ± 0.077 |
| LTCYFSASNVLW | 0.615 ± 0.046 |
| GARGRGLVTESA | 0.703 ± 0.035 |
| QAKNNKKQKGWQ | 0.646 ± 0.046 |
| FSPALPPSHSPP | 0.676 ± 0.057 |
| GTCWAGAMGVVG | 0.714 ± 0.043 |
| PSRYHLFLPSPA | 0.73 ± 0.055 |
| GIRVEWVGRNRC | 0.676 ± 0.023 |
| PPPHPLALPPPP | 0.74 ± 0.03 |
| PSAWRCFSTGKV | 0.844 ± 0.018 |
